This note sets out measurements from article PMC7219890 (2020).

The target in the assay is T1, Mical-1 (Homo sapiens, UniProt Q8TDZ2).
T1 chain: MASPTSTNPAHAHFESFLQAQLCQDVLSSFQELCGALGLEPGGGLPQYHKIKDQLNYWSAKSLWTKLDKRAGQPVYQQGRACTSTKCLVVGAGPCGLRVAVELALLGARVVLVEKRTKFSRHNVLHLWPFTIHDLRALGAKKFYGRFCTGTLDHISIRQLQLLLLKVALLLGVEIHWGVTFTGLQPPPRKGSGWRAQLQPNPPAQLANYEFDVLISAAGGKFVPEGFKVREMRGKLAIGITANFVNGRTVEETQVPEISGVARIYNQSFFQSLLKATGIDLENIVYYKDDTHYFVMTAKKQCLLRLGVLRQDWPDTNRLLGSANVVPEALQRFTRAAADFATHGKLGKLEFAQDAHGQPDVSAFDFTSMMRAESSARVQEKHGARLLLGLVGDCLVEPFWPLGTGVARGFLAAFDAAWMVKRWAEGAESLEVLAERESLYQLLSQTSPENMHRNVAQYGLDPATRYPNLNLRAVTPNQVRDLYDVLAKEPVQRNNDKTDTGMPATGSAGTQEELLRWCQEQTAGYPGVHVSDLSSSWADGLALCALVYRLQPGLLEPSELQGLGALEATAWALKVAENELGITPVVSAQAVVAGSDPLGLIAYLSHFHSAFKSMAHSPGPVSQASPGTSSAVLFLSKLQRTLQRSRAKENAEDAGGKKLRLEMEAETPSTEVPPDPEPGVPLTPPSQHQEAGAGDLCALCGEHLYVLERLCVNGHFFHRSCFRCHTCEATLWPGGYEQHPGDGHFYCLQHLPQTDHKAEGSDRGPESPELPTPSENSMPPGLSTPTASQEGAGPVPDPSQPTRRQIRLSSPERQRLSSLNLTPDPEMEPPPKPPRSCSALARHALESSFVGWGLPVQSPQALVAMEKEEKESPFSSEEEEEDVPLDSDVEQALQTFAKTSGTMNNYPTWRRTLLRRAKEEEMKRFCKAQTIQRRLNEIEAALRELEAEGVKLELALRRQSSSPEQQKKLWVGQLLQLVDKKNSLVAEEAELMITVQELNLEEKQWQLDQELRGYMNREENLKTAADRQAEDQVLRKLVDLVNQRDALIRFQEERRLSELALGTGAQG
Nature of the assay: ITC. (In general: ITC needs no label: the signal is the heat of the interaction.)

B1: Rab8A 6-176 (protein)
chain: DYLFKLLLIGDSGVGKTCVLFRFSEDAFNSTFISTIGIDFKIRTIELDGKRIKLQIWDTAGQERFRTITTAYYRGAMGIMLVYDITNEKSFDNIRNWIRNIEEHASADVEKMILGNKCDVNDKRQVSKERGEKLALDYGIKFMETSAKANINVENAFFTLARDIKAKMDKK
modifications: GppNHp-bound, C-terminal His6 tag on Rab8A
B1 had an equilibrium dissociation constant (Kd) of 923 nM.

B2: Rab8A 6-176 (protein)
chain: DYLFKLLLIGDSGVGKTCVLFRFSEDAFNSTFISTIGIDFKIRTIELDGKRIKLQIWDTAGQERFRTITTAYYRGAMGIMLVYDITNEKSFDNIRNWIRNIEEHASADVEKMILGNKCDVNDKRQVSKERGEKLALDYGIKFMETSAKANINVENAFFTLARDIKAKMDKK
modifications: phosphoSer111 Rab8A, GppNHp-bound, C-terminal His6 tag on Rab8A
B2 yielded a Kd of 913 nM.

In general, Kd refers to the concentration at which binding is half-saturated.
